# Source: the supplement of paper PMC10567573
# ± gives the standard deviation.
# Experiment: protein stability index of a GFP-peptide fusion (GPS, HEK-293T) (PSI 1-6); higher = more stable
# [1] = treatment: DMSO, c terminus: a fixed tail appended
# [2] = treatment: MLN4924 1 uM, 8 h, c terminus: a fixed tail appended
# 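Also: 24-mer peptide tiles fused after GFP, lentivirally expressed, FACS-sorted into six equal bins by GFP/DsRed ratio, decoded by Illumina sequencing, PSI is the read-weighted mean bin number.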
sequence,measurement,setting,value
TDQLEFTVEPRLLVADLLYWKDTR [RTN2],protein stability index,[1],2.43 ± 0.23
same,protein stability index,[2],2.54 ± 0.33
AQHSLMDGYCMFNHVAVAARYAQQ [HDAC6],protein stability index,[1],2.1 ± 0.25
same,protein stability index,[2],1.92 ± 0.39
MEPGDIIGVAGNHWDGYSKGVNRK [FUT8],protein stability index,[1],4.4 ± 0.22
same,protein stability index,[2],4.6 ± 0.35
HMEDPRRAGKMLMTLPLLRQTSTK [ESRRG],protein stability index,[1],3.63 ± 0.16
same,protein stability index,[2],3.7 ± 0.28
EGDPGSKQPRKKRGRYRQYNSEIL [LCOR],protein stability index,[1],4.64 ± 0.22
same,protein stability index,[2],4.55 ± 0.28
WSLYPSDSQVSEEVKTRHSEKSQR [CHGB],protein stability index,[1],4.78 ± 0.17
same,protein stability index,[2],4.8 ± 0.19
IGHFNTASGVGFILGPVVGGYLTE [MFSD9],protein stability index,[1],2.38 ± 0.53
same,protein stability index,[2],2.31 ± 0.39
KDRASPADLRTNHTLNNLVEKLLR [TRIM35],protein stability index,[1],2.44 ± 0.27
same,protein stability index,[2],2.48 ± 0.13
VVLSDGPALHPAHAPQISYTGPSS [NCK2],protein stability index,[1],3.13 ± 0.37
same,protein stability index,[2],3.38 ± 0.17
LVKHWYQNCKKKLGKLPPQYALEL [OAS1],protein stability index,[1],2.43 ± 0.83
same,protein stability index,[2],2.51 ± 0.63
YSPEALASIQNHVRKREAPAPEAE [EFHC1],protein stability index,[1],4.92 ± 0.19
same,protein stability index,[2],5.06 ± 0.2
KAMAKLSKLASNGTPMGTFAPLWE [FCHO1],protein stability index,[1],2.23 ± 0.41
same,protein stability index,[2],2.48 ± 0.12
RKAALEQDLAFWYGPRWQEVIPYT [HMOX1],protein stability index,[1],2.33 ± 0.23
same,protein stability index,[2],2.54 ± 0.39
LEIDSGVITLDPQTASRSLVLSED [TRIM15],protein stability index,[1],4.69 ± 0.19
same,protein stability index,[2],4.74 ± 0.32
LNSPPGPHSAKTEEHTTILRPSYT [CDC14A],protein stability index,[1],4.41 ± 0.61
same,protein stability index,[2],4.651 ± 0.039
IHIIDFGLAKEYIDPETKKHIPYR [CSNK1G3],protein stability index,[1],2.1 ± 0.36
same,protein stability index,[2],2.33 ± 0.17
LQGDLKTLMGKLKLKNTVTIQQEK [SASS6],protein stability index,[2],2.81 ± 0.25
LPNASADSLGGSQEMVQRPQPHRN [TRAF3IP2],protein stability index,[1],5.25 ± 0.13
same,protein stability index,[2],5.26 ± 0.16
FDAALVSFINFFTSVLATLVVFAV [SLC6A17],protein stability index,[1],3.44 ± 0.4
same,protein stability index,[2],3.44 ± 0.97
SLDGKAIKVEQATKPSFESGRRGP [RBMX],protein stability index,[1],4.84 ± 0.4
same,protein stability index,[2],4.94 ± 0.35
VDCACLKENPECPVLKRSSESMEN [KMT2E],protein stability index,[1],4.96 ± 0.37
same,protein stability index,[2],4.98 ± 0.19
KSFILDFMLRYLYSQKESGHSNWL [ATL3],protein stability index,[1],2.88 ± 0.33
same,protein stability index,[2],3.07 ± 0.48
AVVAAGGGSSGQVTSNGSIGRDPP [CLPTM1],protein stability index,[1],4.75 ± 0.13
same,protein stability index,[2],4.88 ± 0.26
YVDSPALTNIWMARTCAKQNINAP [C22orf31],protein stability index,[1],3 ± 0.59
same,protein stability index,[2],2.36 ± 0.24
HADILAAVETRLSLLNMTFMKYVD [FBXO28],protein stability index,[1],2.84 ± 0.69
same,protein stability index,[2],2.75 ± 0.65
PEDEVIVNQYVIRPGPSASAASSA [RNF208],protein stability index,[1],4.61 ± 0.12
same,protein stability index,[2],4.62 ± 0.16
TQEFLSACKSLQTRQNGIQTNKPA [STX5],protein stability index,[1],4.18 ± 0.21
same,protein stability index,[2],4.14 ± 0.23
STEVQAHPYSTTFQESASTPETRA [TEKT4],protein stability index,[1],5.23 ± 0.17
same,protein stability index,[2],5.16 ± 0.1
VLCGVVMDRSLVQDAPLSDCTETI [ADD1],protein stability index,[1],3.11 ± 0.27
same,protein stability index,[2],2.99 ± 0.41
KIIQLGLTFMNEQGEYPPGTSTWQ [CNOT7],protein stability index,[1],2.23 ± 0.2
same,protein stability index,[2],2.19 ± 0.18
VLQHVRLPLLSPKFLVGTVGSDPL [KLHL20],protein stability index,[1],2.22 ± 0.28
same,protein stability index,[2],2.13 ± 0.1
ENDSTPTVSTSEVTSQQEPQIPVD [TAF7L],protein stability index,[1],5.53 ± 0.2
same,protein stability index,[2],5.59 ± 0.26
CQNKCRIALVENIPEGLNYSENAP [PLD5],protein stability index,[1],3.03 ± 0.45
same,protein stability index,[2],3.23 ± 0.64
GLKKLNLHEEEHVLLMAICIVSPD [VDR],protein stability index,[1],3.13 ± 0.57
same,protein stability index,[2],2.83 ± 0.54
PEIAQNFSAPDPPRPRPVSLSLRL [SMTNL2],protein stability index,[1],2.91 ± 0.27
same,protein stability index,[2],3.04 ± 0.22
LEQMIKENQEKTEDQYEENSHLTS [ETS2],protein stability index,[1],5.7 ± 0.16
same,protein stability index,[2],5.51 ± 0.14
LLPTLYEIHSKTTAYSRLNETQPI [RNF180],protein stability index,[1],1.96 ± 0.15
same,protein stability index,[2],2.15 ± 0.41
CRANRNCPIDQHHRNQCQYCRLKK [NR2F2],protein stability index,[1],4.2 ± 0.044
same,protein stability index,[2],4.39 ± 0.14
VCTVQFLISKGANVNRTTANNDHT [ANKRD17],protein stability index,[1],2.28 ± 0.24
same,protein stability index,[2],2.46 ± 0.4
DQDGEYCPEVKLKTTGLEEAAEAE [SRPK2],protein stability index,[1],5.63 ± 0.3
same,protein stability index,[2],5.81 ± 0.18
DGNKDVYLSLLRMYLSPPSIHCLG [VPS39],protein stability index,[1],2.94 ± 0.57
same,protein stability index,[2],2.72 ± 0.33
EAGASLVDQKLELNIVPRTKVVYL [PI4K2A],protein stability index,[1],2.29 ± 0.26
same,protein stability index,[2],2.34 ± 0.47
FELEDSNEIFTQLYRTLFSVINNG [PDS5B],protein stability index,[1],2.15 ± 0.47
same,protein stability index,[2],2.41 ± 0.23
RLQHICELFIITQLQSMPSRELAS [RHOBTB3],protein stability index,[1],3.19 ± 0.5
same,protein stability index,[2],3.33 ± 0.63
AVAHKTPRCPGSVNEKLPQREGTG [SMOC2],protein stability index,[1],5.13 ± 0.47
same,protein stability index,[2],5.33 ± 0.12
VDFTFVENVVHGHILAAEQLSRDS [NSDHL],protein stability index,[1],2.37 ± 0.36
same,protein stability index,[2],2.26 ± 0.4
EEEEEEEEVDLACTPTDVRDVDI [CCND1],protein stability index,"treatment: DMSO, c terminus: native",4.5 ± 0.5
same,protein stability index,"treatment: MLN4924 1 uM, 8 h, c terminus: native",5.14 ± 0.34
GNLNIHQRTHTGEKPYGCIDCGKA [ZNF649],protein stability index,[1],3.96 ± 0.38
same,protein stability index,[2],4.14 ± 0.4
SYSTSEQAELSYKKVSEGPPLRLW [DLC1],protein stability index,[1],2.73 ± 0.36
same,protein stability index,[2],3.26 ± 0.18
LGDPCPMLESPGAPCRSAQASVSC [HDAC6],protein stability index,[1],3.94 ± 0.39
same,protein stability index,[2],4.06 ± 0.18
KESRAQTLQNGRRHIHHLGNQLQL [BRF1],protein stability index,[1],3.55 ± 0.15
same,protein stability index,[2],3.63 ± 0.31
LIDEKVLILHGGVSDITDLELLDK [PPEF2],protein stability index,[1],3.14 ± 1.5
same,protein stability index,[2],3.71 ± 0.55
DPDGKKIKQIQQLFEEILSNSRQL [FBXO33],protein stability index,[1],2.54 ± 0.41
same,protein stability index,[2],2.77 ± 0.24
VDPIGHLYIFATCLGLSYDGLLGD [MAGEA3],protein stability index,[1],3.06 ± 0.37
same,protein stability index,[2],3.21 ± 0.34
AAEQAERSQSSIVPEEEQAANKGE [SMARCE1],protein stability index,[1],5.51 ± 0.3
same,protein stability index,[2],5.54 ± 0.19
TQEGAKDLEVDMNKTEVTPRLWTT [ACSBG2],protein stability index,[1],3.55 ± 0.62
same,protein stability index,[2],4.03 ± 0.68
GCGYGCQLHHVVYCFMIAYGTQRT [FUT8],protein stability index,[1],3.19 ± 0.45
same,protein stability index,[2],3.06 ± 0.57
ILFYCHFPDLLLTKRDSFLKRLYR [ALG2],protein stability index,[1],2.81 ± 0.6
same,protein stability index,[2],2.18 ± 0.51
QLTGHQRIHSGEEPHKCPECGKRF [ZNF449],protein stability index,[1],4.01 ± 0.28
same,protein stability index,[2],4.82 ± 0.38
MSASLNYKSFSKEQQTMDNLEKQL [TRIM55],protein stability index,[1],4.71 ± 0.23
same,protein stability index,[2],4.47 ± 0.14
QACMGGRCLHMDQLQDFNIPQAGG [ADAMTS4],protein stability index,[1],3.38 ± 0.15
same,protein stability index,[2],3.21 ± 0.09
KNWWVRGILTLAMIAFFFIIIYLG [CDS2],protein stability index,[1],3.07 ± 0.36
same,protein stability index,[2],2.85 ± 0.52
LLQIIDTTLLKCYLHTNVALVAPL [VPS39],protein stability index,[1],3.13 ± 0.49
same,protein stability index,[2],3.38 ± 0.21
KEDASEFQILKYLFQIDVYDFMNS [MIA2],protein stability index,[1],2.5 ± 0.65
same,protein stability index,[2],2.76 ± 0.24
AEDLRMLDASGEKMNGSHRDQGSS [IKZF1],protein stability index,[1],5.18 ± 0.43
same,protein stability index,[2],5.34 ± 0.23
SHAWEVALGGLQSWRVGVVRVRQD [TRIM35],protein stability index,[1],2.47 ± 0.26
same,protein stability index,[2],2.35 ± 0.36
SAPDTMKRYSMYLTPKGGVRTSYQ [TRIM29],protein stability index,[1],2.94 ± 0.21
same,protein stability index,[2],3.05 ± 0.16
RVLNSAKEKSSTVPIPTVNQYLYF [SOAT1],protein stability index,[1],2.29 ± 0.14
same,protein stability index,[2],2.47 ± 0.16
FTVRPDVTQNSTAEPSRFSSSDSD [FCHO1],protein stability index,[1],5.09 ± 0.32
same,protein stability index,[2],5.06 ± 0.14
QKKDCVPLMKPHRPWADTCSSSGK [HESX1],protein stability index,[1],3.49 ± 0.52
same,protein stability index,[2],3.67 ± 0.53
KKEEPEPETEAVSSSQEIPTMPQP [ZMYND11],protein stability index,[1],5.45 ± 0.47
same,protein stability index,[2],5.55 ± 0.23
FSRENLSKDLYLISQMDSDQFIPI [LARP4],protein stability index,[1],2.17 ± 0.45
same,protein stability index,[2],2.13 ± 0.36
MVTCKSEFYHDEFKRWIYLNDQNL [GAN],protein stability index,[1],2.44 ± 0.43
same,protein stability index,[2],2.25 ± 0.48
VPQALSATTYKHGVLTRKTHADMD [PSD2],protein stability index,[1],4.47 ± 0.18
same,protein stability index,[2],4.56 ± 0.12
VPVPPAAAPPPPATPIVPVVPPTP [BRD3],protein stability index,[1],4.75 ± 0.43
same,protein stability index,[2],4.75 ± 0.16
AQRHRELYLRVELSDVQNPAISIT [HACD3],protein stability index,[1],2.16 ± 0.34
same,protein stability index,[2],2.18 ± 0.15
TREWTQLKPNNLSCDLPEERYRHE [KLHDC10],protein stability index,[1],4.61 ± 0.3
same,protein stability index,[2],4.71 ± 0.13
EYLLSFPAGKTPVPAGEEEGELGE [VPS39],protein stability index,[1],5.25 ± 0.43
same,protein stability index,[2],5.31 ± 0.071
FCISLLRERFMECLMIGRDLVRLL [INTS3],protein stability index,[1],2.27 ± 0.28
same,protein stability index,[2],2.29 ± 0.13
MDRSLVQDAPLSDCTETIEGLELT [ADD1],protein stability index,[1],5.27 ± 0.28
same,protein stability index,[2],5.32 ± 0.19
KPGFLAPRDLPKHTPLISKSQSLR [RASAL3],protein stability index,[1],3.61 ± 0.2
same,protein stability index,[2],3.8 ± 0.47
EPEDMETLEEKFSDVHPVALNFMK [CDKL4],protein stability index,[1],4.68 ± 0.3
same,protein stability index,[2],4.89 ± 0.19
VSVNAQTLDGRTPLHLAAQRGHYR [RIPK4],protein stability index,[1],3.76 ± 0.29
same,protein stability index,[2],3.77 ± 0.58
STLKEVKPTVFIGVPQIWEKIHEM [ACSBG2],protein stability index,[1],2.1 ± 0.24
same,protein stability index,[2],2.27 ± 0.31
VQELLPAACLLQLKGVKQACCEFL [KLHL12],protein stability index,[1],2.27 ± 0.28
same,protein stability index,[2],1.81 ± 0.37
PSMIATGSVGAAICGLQQDEEVSS [CCND2],protein stability index,[1],5.41 ± 0.1
same,protein stability index,[2],5.15 ± 0.27
LAPEVIQSKGHGRAVDWWALGILI [PRKX],protein stability index,[1],2.61 ± 0.86
same,protein stability index,[2],2.3 ± 0.62
FRRAPSWRKRFRPREHHGRGGMLS [PPFIA4],protein stability index,[1],3.11 ± 0.27
same,protein stability index,[2],3.99 ± 0.078
SPSPMSHGHYSMHCLHSAGHSQPD [DLX1],protein stability index,[1],3.82 ± 0.18
same,protein stability index,[2],3.91 ± 0.21
